Where a chain is given by its changes, count along the chain named.
B1: Antibody 27 (antibody, V domains shown)
VH: QVQLVQSGAEVKKPGSSVKVSCKASGFDFSTYYMSWVRQAPGQGLEWMGTVYVRQGTTYYASWLNGRVTITADESTSTAYMELSSLRSEDTAVYYCARGGYNYDDAFVIWGQGTLVTVSS
VL: DIQMTQSPSSVSASVGDRVTITCQASQNIYSNLAWYQQKPGKAPKLLIYTASYLASGVPSRFSGSGSGTDYTLTISSLQPEDFATYYCQTAYYNSRPDTVAFGGGTKVEIK
notes: also called humanized 305 variant 305-LC2 / 305-HC4
B2: Antibody 28 (antibody, V domains shown)
VH: EVQLLESGGGLVQPGGSLTLSCAASGFDFSTYYMSWVRQAPGKGLEWVSTVYVRQGTTYYASWLNGRFTISRDNSKNTLYLQMNSLRAEDTAVYYCAKGGYNYDDAFVIWGQGTLVTVSS
VL: B1 VL
notes: Humanized variant of antibody 305; also called humanized 305 variant 305-LC2 / 305-HC7
B3: Antibody 30 (antibody, V domains shown)
VH: B2 VH with T19R, R87T
VL: B1 VL with Y71F
notes: Humanized variant of antibody 305; also called humanized 305 variant 305-LC1 / 305-HC10
B4: Antibody 29 (antibody, V domains shown)
VH: B2 VH with T19R, Y80D
VL: B1 VL
notes: Humanized variant of antibody 305; also called humanized 305 variant 305-LC2 / 305-HC8
B5: Antibody 32 (antibody, V domains shown)
VH: B2 VH with T19R, Y80D
VL: B1 VL with S10T, V11L, D70E, Y71F, E81D
notes: Humanized variant of antibody 305; also called humanized 305 variant 305-LC6 / 305-HC8
B6: Antibody 34 (antibody, V domains shown)
VH: B2 VH with T19R
VL: B1 VL with D1A, Q3R, V11F, V15T, S77C, P80S
notes: Humanized variant of antibody 305; also called humanized 305 variant 305-LC4 / 305-HC2
B7: Antibody 31 (antibody, V domains shown)
VH: B2 VH
VL: B1 VL with D1A, Q3R, V11F, V15T, S77C, P80S
notes: Humanized variant of antibody 305; also called humanized 305 variant 305-LC4 / 305-HC7
B8: Antibody 33 (antibody, V domains shown)
VH: B1 VH
VL: B1 VL with D1A, Q3R, V11F, V15T, S77C, P80S
notes: Humanized variant of antibody 305; also called humanized 305 variant 305-LC4 / 305-HC4
B9: TW-304 (antibody, V domains shown)
VH: QSLEESGGDLVKPGASLTLTCKASGFSFSSTYYMCWVRQAPGKGLEWIGCIYVGSSGAPYYASWAKGRFTISKTSSTTVALQMTSLTPADTATYVCTRSVHFGDLWGPGTLVTVSS
VL: DVVMTQTPSPVSAAVGGTVTIKCQASQSIGNDLSWYQQKPGQRPKLLIYSVSTLASGVPSRFKGSGSGTEYSLTISDVQCADAATYYCQCIDYGNNYVGNTFGGGTEVVVK
notes: also called Antibody 304; rabbit antibody 304
B10: TW-304chi (antibody, human IgG1, kappa, V domains shown)
VH: B9 VH
VL: DVVMTQTPSPVSAAVGGTVTIKCQASQSIGNDLSWYQQKPGQRPKLLIYSVSTLASGVPSRFKGSGSGTEYSLTISDVQCADAATYYCQCIDYGNNYVGNTFGGGTEVVVKR
notes: also called chimeric antibody 304
B11: TW-305 (antibody, V domains shown)
VH: QEQLVESGGGLVQPGGSLTLSCKASGFDFSTYYMSWVRQAPGKGLEWIGTVYVRQGTTYYASWLNGRFTISSDNAQNTVDLKMNSLTAADTATYFCAKGGYNYDDAFVIWGPGTLVTVSF
VL: AIEMTQTPFSVSAAVGGTVTINCQASQNIYSNLAWYQQKPGQPPKLLMYTASYLASGVPSRFKGSGSRTEYTLTISGVQCADAATYYCQTAYYNSRPDTVAFGGGTEVVVK
notes: also called Antibody 305; rabbit antibody 305

Assays:
[1] = target: T1, Human recombinant soluble TWEAK (human, UniProt O43508 99-249); test: cell-based or functional assay
T1 sequence: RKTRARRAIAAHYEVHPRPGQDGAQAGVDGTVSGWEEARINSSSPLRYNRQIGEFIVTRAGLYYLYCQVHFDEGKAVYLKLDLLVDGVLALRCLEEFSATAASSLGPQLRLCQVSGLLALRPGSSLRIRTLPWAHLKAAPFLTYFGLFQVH

[2] = target: T2, Biotinylated human soluble TWEAK (amino acids 99-249 of SEQ ID NO: 60) (human, UniProt O43508 99-249, biotinylated (sites not given)); test: Biacore SPR, biotinylated human soluble TWEAK on SA sensor, antibody as analyte, 25 C
T2 construct: Immobilised on the streptavidin sensor in the Biacore half-life assay; also called Human TWEAK; soluble human TWEAK
T2 sequence: T1 sequence
Description: (§1) A Biacore 2000 instrument was used with a Biacore streptavidin coated sensor mounted into the system. The system buffer HBS-ET (10 mM HEPES pH 7.4, 150 mM NaCl, 1 mM EDTA, 0.05% Tween® 20) was used at a flow rate of 100 μl/min. The sample buffer was the system buffer. Biotinylated human soluble TWEAK (amino acids 99-249 of SEQ ID NO: 60) and biotinylated murine soluble TWEAK (amino acids 81-225 of SEQ ID NO: 61) was immobilized on different flow cells on the SA sensor at 150 RU each. The flow cell FC1 was used as a blank reference cell. Each antibody was injected into the system as an analyte at 100 nM at 100 μl/min for 2 min association time. The dissociation of the immune complexes were monitored for 5 min. The sensor surface was washed with HBS-ET for 10 seconds and regenerated using 2×2 minutes injections with 10 mM glycine pH 2.25. This procedure was done at 25° C. The kinetically rate limiting step of the complex dissociation phase in the interval [240 s-300 s] was taken to calculate the dissociation rate kd [1/s] (Biacore Evaluation Software 4.0). According to the equation t1/2 diss=ln(2)/(60×kd), the half-life of the immunocomplexes in minutes was calculated.

[3] = target: T3, human Flag-tagged soluble TWEAK (amino acids 106-249) (human, UniProt O43508 106-249); test: competition ELISA: antibody pre-incubated with human Flag-TWEAK, binding to coated human Fn14:Fc
T3 construct: N-terminal placement here is only an order of listing; not shown: Flag tag
T3 sequence: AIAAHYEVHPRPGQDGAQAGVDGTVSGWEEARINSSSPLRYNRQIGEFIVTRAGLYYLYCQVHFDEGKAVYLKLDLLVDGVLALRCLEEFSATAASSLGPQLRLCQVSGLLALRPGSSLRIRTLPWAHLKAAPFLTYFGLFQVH
Description: (§2) 96-well Maxisorp® plates (Nunc) were coated with 100 μl 1 μg/ml human Fn14:Fc (extracellular domain of human Fn14 (amino acids 1-75) fused to Fc portion of human IgG1) in PBS per well for 1.5 h at room temperature and blocked with a solution of 5% FBS in PBS for 30 minutes at room temperature under shaking. […] Wells were filled with 100 μl of anti-FLAG-HRP detection antibody, diluted 1:5000 in blocking buffer, and incubated for 1 h at room temperature. After four more wash steps, the signal was developed by addition of 100 μl 3,3,5,5-Tetramethylbenzidine (TMB) solution for approximately ten minutes. The reaction was stopped by adding 100 μl of 1 N HCl, and absorbance measured at 450 nm (reference wavelength 620 nm).

[4] = target: T2, Biotinylated human soluble TWEAK (amino …); test: Biacore SPR, biotinylated human soluble TWEAK on SA sensor, antibody as analyte, 37 C
[5] = target: Biotinylated murine soluble TWEAK (amino acids 81-225 of SEQ ID NO: 61) (murine) (UniProt O54907); test: Biacore SPR, biotinylated murine soluble TWEAK on SA sensor, antibody as analyte, 37 C
[6] = target: Mouse soluble TWEAK (mouse) (UniProt O54907); test: competition ELISA: antibody pre-incubated with mouse soluble TWEAK, binding to coated mouse Fn14:Fc
[7] = target: Biotinylated murine soluble TWEAK (amino acids 81-225 of SEQ ID NO: 61) (murine) (UniProt O54907); test: Biacore SPR, biotinylated murine soluble TWEAK on SA sensor, antibody as analyte, 25 C
[8] = target: T1, Human recombinant soluble TWEAK; test: cell-based or functional assay; remark: listed apart in the source
[9] = target: T3, human Flag-tagged soluble TWEAK (amino …); test: competition ELISA: antibody pre-incubated with human Flag-TWEAK 2.5 ng/ml, binding to coated human Fn14:Fc
Description: as §2

Biotinylated TWEAK [10] = target: T4, Biotinylated TWEAK (Homo sapiens (Human), UniProt O43508 99-249, Biotinylated for capture on the streptavidin sensor; the site or sites of biotinylation are not stated. The active form is a soluble homotrimer; one protomer is given.); test: Biacore cross-blocking on immobilised biotinylated TWEAK; binding of antibody 2 after saturation with competitor antibody 1 TW-304chi (row), 100 nM each
T4 sequence: T1 sequence
Description: (§3) Because of the individual biochemical properties of the TWEAK protein another method had to be developed using TWEAK as ligand. Biotinylated TWEAK was immobilized on the streptavidin-coated chip surface and epitope coverage of consecutively injected antibodies (antibody 1) was measured. The aim was to detect the relative binding levels of a secondary antibody (antibody 2) in the presence of an already bound primary antibody. From these relative binding levels a quotient was calculated (Ab2/Ab1, molar ratio given in %, table 7).
(§4) 5 nM of biotinylated TWEAK was immobilized at 20 μl/min for 1 min on a streptavidin coated sensor flow cell. Primary and secondary mAbs were consecutively injected at 10 μl/min for 4 min into the system at 100 nM each until saturation of the respective TWEAK epitopes was achieved. As a reference an SA coated flow cell was used.
(§5) The system was washed with HBS-ET for 20 sec at 30 μl/min followed by two regeneration steps with 1 min at 30 μl/min 6 M GuadHCl and 100 mM HCl. […] The process was repeated by the immobilization of native biotinylated TWEAK protein (feed batch mode) on the same flow cell until the streptavidin sensor surface was completely saturated by biotinylated TWEAK.

[11] = target: T2, Biotinylated human soluble TWEAK (amino …); test: Biacore SPR, biotinylated TWEAK on SA sensor, antibody 100 nM as analyte, 25 C; t1/2 = ln(2)/(60 x kd)
Description: as §1

Biotinylated TWEAK [12] = target: T4, Biotinylated TWEAK; test: Biacore cross-blocking on immobilised biotinylated TWEAK; binding of antibody 2 after saturation with competitor antibody 1 TW-301chi (row), 100 nM each
Description: as §3, §4, §5

Biotinylated TWEAK [13] = target: T4, Biotinylated TWEAK; test: Biacore cross-blocking on immobilised biotinylated TWEAK; binding of antibody 2 after saturation with competitor antibody 1 TW-305chi (row), 100 nM each
Description: as §3, §4, §5

| Binder | IL8-Secretion [1] [ng/mL] | t/2 diss [2] [min] | IC50 [3] [ng/mL] | t/2 diss [4] [min] | t/2 diss [5] [min] | IC50 [6] [ng/mL] | t/2 diss [7] [min] | IL-8 Secretion IC50 [8] [ng/mL] | IC50 [9] [ng/mL] | MR % (Ab2/Ab1 molar ratio) (Biotinylated TWEAK [10]) [%] | t/2 diss [11] [min] | MR % (Ab2/Ab1 molar ratio) (Biotinylated TWEAK [12]) [%] | MR % (Ab2/Ab1 molar ratio) (Biotinylated TWEAK [13]) [%] |
| --- | --- | --- | --- | --- | --- | --- | --- | --- | --- | --- | --- | --- | --- |
| B1 | 197 | 110 | 2.3 | 147 | 19 | 8.2 | 19 |  |  |  |  |  |  |
| B2 | 165 | 87 | 1.5 | 115 | 17 | 6.5 | 19 |  |  |  |  |  |  |
| B3 | 207 | 50 | 2.3 | 45 | 15 | 7.6 | 17 |  |  |  |  |  |  |
| B4 | 78 | 146 | 1.8 | 195 | 21 | 5.7 | 22 |  |  |  |  |  |  |
| B5 | 134 | 67 | 1.5 | 50 | 20 | 5.4 | 17 |  |  |  |  |  |  |
| B6 | 24 | 158 | 1.9 | 185 | 20 | 5.9 | 22 |  |  |  |  |  |  |
| B7 | 94 | 115 | 1.7 | 151 | 19 | 7.1 | 19 |  |  |  |  |  |  |
| B8 | 26 | 127 | 1.7 | 99 | 15 | 6.7 | 19 |  |  |  |  |  |  |
| B9 |  |  |  |  |  |  |  | 109 | 2.8 |  |  |  |  |
| B10 |  |  |  |  |  |  |  | 122 | 2.6 | 0 | 37 | 6 | 1 |
| B11 |  |  |  |  |  |  |  | 99 | 2.5 |  |  |  |  |

— patent US20120121583A1 (Genentech, published 2012)
